Test results taken from patent US20240116985A1, “STAPLED PEPTIDES AND METHODS THEREOF” (priority 2020, published 2024).
Starred links: 1 amine or outer side, 2 acyl side, 3 side chain; linkers in the order of their positions; H or OH if unused. Positions of bridges follow the written chain, without caps; N, C: chain ends. Non-standard residues stand in square brackets, D forms with d. Primed or numbered codes have the meaning given here. PyrS2″ = (S)-3-amino-1-((pent-4-en-1-yloxy)carbonyl)pyrrolidine-3-carboxylic acid (stapling residue), C=CCCCOC(=O)N1CC[C@@](N[*:1])(C(=O)[*:2])C1; B5(4) = 2,2-bis(4-pentenyl)glycine = 2-amino-2-(pent-4-en-1-yl)hept-6-enoic acid (stitching residue), C=CCCCC(CCCC=C)(N[*:1])C(=O)[*:2]; B5(5) = 2,2-bis(4-pentenyl)glycine, 2-amino-2-(pent-4-en-1-yl)hept-6-enoic acid (stitching residue), C=CCCCC(CCCC=C)(N[*:1])C(=O)[*:2]; B5(21) = 2-amino-2-(pent-4-en-1-yl)hept-6-enoic acid, bis(4-pentenyl)glycine (stitching residue), C=CCCCC(CCCC=C)(N[*:1])C(=O)[*:2]; PyrS2 = (S)-3-amino-1-((pent-4-en-1-yloxy)carbonyl)pyrrolidine-3-carboxylic acid, C=CCCCOC(=O)N1CC[C@@](N[*:1])(C(=O)[*:2])C1; B5(12) = 2-amino-2-(pent-4-en-1-yl)hept-6-enoic acid (two olefin side chains), C=CCCCC(CCCC=C)(N[*:1])C(=O)[*:2]; B5(22) = 2-amino-2-(pent-4-en-1-yl)hept-6-enoic acid (two alkene side chains), C=CCCCC(CCCC=C)(N[*:1])C(=O)[*:2]; B5(3) = 2,2-bis(4-pentenyl)glycine (stitching residue), C=CCCCC(CCCC=C)(N[*:1])C(=O)[*:2]; B5 = 2-amino-2-(pent-4-en-1-yl)hept-6-enoic acid, C=CCCCC(CCCC=C)(N[*:1])C(=O)[*:2]; Trp(1-Me) = Cn1cc(C[C@H](N)C(=O)O)c2ccccc21; Ala(4-thiazolyl) = N[C@@H](Cc1cscn1)C(=O)O; Phe(2-Cl) = N[C@@H](Cc1ccccc1Cl)C(=O)O; Bta = N[C@@H](Cc1csc2ccccc12)C(=O)O; αAllylPro = C=CC[C@@]1(C(=O)O)CCCN1; tBuAla = CC(C)(C)C[C@H](N)C(=O)O; 3Thi = N[C@@H](Cc1ccsc1)C(=O)O; Nle = CCCC[C@H](N)C(=O)O

The binders below were run against full-length beta-Catenin (Uniprot ID P35222) (Homo sapiens (Human)) (UniProt P35222) (assay: fluorescence polarization competition; 5FAM-TCF4(10-53) probe displaced from full-length beta-catenin).
full-length beta-Catenin (Uniprot ID P35222) (Homo sapiens (Human)), sequence (P35222 2-781 limits assumed): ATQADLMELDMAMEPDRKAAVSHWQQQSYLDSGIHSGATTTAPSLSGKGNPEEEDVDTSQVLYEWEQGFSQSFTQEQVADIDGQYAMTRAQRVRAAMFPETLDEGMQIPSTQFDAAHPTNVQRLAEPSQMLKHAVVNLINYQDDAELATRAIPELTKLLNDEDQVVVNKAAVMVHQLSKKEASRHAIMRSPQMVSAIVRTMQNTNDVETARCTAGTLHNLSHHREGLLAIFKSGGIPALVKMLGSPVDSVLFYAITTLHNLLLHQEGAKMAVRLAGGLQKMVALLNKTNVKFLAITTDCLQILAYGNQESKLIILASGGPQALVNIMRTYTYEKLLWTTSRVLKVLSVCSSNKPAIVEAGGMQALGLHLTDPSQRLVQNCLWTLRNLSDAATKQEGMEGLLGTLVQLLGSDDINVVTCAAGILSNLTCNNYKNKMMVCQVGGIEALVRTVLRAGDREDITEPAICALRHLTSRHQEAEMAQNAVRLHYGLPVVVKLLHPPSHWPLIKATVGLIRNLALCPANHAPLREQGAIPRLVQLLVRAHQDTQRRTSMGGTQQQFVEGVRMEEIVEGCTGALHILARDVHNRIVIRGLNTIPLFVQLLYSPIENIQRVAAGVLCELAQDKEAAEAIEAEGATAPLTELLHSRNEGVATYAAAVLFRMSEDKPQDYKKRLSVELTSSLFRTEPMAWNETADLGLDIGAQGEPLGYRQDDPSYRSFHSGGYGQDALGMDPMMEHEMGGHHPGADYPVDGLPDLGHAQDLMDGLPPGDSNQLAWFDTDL
For Ac-[αAllylPro]D[Nle][B5(5)]DDAAFL[PyrS2″][Phe(2-Cl)][Bta]L-NH2 (staple 1-4, 4-11; also: staple isomer of later HPLC peak) [I-1421], the IC50 was 134 nM.
Ac-[αAllylPro]D[tBuAla][B5(22)]DDAAFL[PyrS2][3Thi][Trp(1-Me)]Q-NH2 (staple 1-4, 4-11) [I-1433] gave an IC50 of 71 nM.
In the case of Ac-[αAllylPro]D[tBuAla][B5(5)]DDAAFL[PyrS2″][Phe(2-Cl)][Bta]L-NH2 (staple 1-4, 4-11) [I-1417], the IC50 is reported as 198 nM.
Work on Ac-[αAllylPro]D[tBuAla][B5(22)]DDAAFL[PyrS2][3Thi][Trp(1-Me)]S-NH2 (staple 1-4, 4-11) [I-1434] yielded an IC50 of 83 nM.
For Ac-[αAllylPro]DT[B5(5)]DDAAFL[PyrS2″][3Thi][Bta]L-NH2 (staple 1-4, 4-11) [I-1415], the IC50 was 72 nM.
For Ac-[αAllylPro]D[tBuAla][B5(22)]DDAAFL[PyrS2][3Thi]WQ-NH2 (staple 1-4, 4-11) [I-1431], the IC50 was 44 nM.
For Ac-[αAllylPro]D[tBuAla][B5(22)]DDAAFL[PyrS2][3Thi]WS-NH2 (staple 1-4, 4-11) [I-1432], the IC50 was 27 nM.
In the case of Ac-[αAllylPro]DS[B5(12)]DDAAFL[PyrS2″][3Thi][Bta]L-NH2 (staple 1-4, 4-11) [I-1414], the IC50 is reported as 84 nM.
Work on Ac-[αAllylPro]D[tBuAla][B5(5)]DDAAFL[PyrS2″][Phe(2-Cl)][Bta]L-NH2 (staple 1-4, 4-11; also: staple isomer, earlier eluting HPLC peak) [I-1416] yielded an IC50 of 57 nM.

These binders were tested against beta-catenin (Homo sapiens (Human)) (UniProt P35222) (assay: fluorescence polarization competition; full-length beta-catenin with 5FAM-TCF4(10-53) probe as competitor).
beta-catenin (Homo sapiens (Human)), sequence (P35222 whole entry): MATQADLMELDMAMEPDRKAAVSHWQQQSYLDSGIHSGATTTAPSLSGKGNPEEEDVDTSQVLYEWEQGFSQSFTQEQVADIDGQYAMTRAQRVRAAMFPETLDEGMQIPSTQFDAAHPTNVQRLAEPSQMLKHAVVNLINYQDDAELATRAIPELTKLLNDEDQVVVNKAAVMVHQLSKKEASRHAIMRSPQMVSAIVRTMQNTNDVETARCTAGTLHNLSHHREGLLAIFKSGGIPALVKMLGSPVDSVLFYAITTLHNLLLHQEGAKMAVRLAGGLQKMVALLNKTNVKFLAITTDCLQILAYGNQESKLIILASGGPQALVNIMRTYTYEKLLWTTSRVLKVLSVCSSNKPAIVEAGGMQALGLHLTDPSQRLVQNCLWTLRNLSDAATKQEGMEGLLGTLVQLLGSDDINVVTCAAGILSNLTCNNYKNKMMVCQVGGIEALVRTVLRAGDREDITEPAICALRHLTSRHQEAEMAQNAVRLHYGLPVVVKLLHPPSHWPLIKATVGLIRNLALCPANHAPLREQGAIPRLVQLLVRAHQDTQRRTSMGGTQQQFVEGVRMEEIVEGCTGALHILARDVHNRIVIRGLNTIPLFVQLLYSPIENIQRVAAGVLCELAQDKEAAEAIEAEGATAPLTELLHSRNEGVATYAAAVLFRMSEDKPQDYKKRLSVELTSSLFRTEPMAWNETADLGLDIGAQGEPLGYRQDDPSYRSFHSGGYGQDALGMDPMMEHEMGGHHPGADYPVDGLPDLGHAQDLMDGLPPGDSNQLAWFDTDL
For Ac-[αAllylPro]D[Nle][B5(5)]DDAAFL[PyrS2″][Phe(2-Cl)][Bta]L-NH2 (staple 1-4, 4-11; also: staple isomer of later HPLC peak) [I-1421], the EC50 was 134 nM.
In the case of Ac-[αAllylPro]D[tBuAla][B5(22)]DDAAFL[PyrS2][3Thi][Trp(1-Me)]Q-NH2 (staple 1-4, 4-11) [I-1433], the EC50 is reported as 71 nM.
With Ac-[αAllylPro]D[tBuAla][B5(5)]DDAAFL[PyrS2″][Phe(2-Cl)][Bta]L-NH2 (staple 1-4, 4-11) [I-1417] the EC50 was 198 nM.
Work on Ac-[αAllylPro]D[tBuAla][B5(22)]DDAAFL[PyrS2][3Thi][Trp(1-Me)]S-NH2 (staple 1-4, 4-11) [I-1434] yielded an EC50 of 83 nM.
Work on Ac-[αAllylPro]DT[B5(5)]DDAAFL[PyrS2″][3Thi][Bta]L-NH2 (staple 1-4, 4-11) [I-1415] yielded an EC50 of 72 nM.
Ac-[αAllylPro]D[tBuAla][B5(22)]DDAAFL[PyrS2][3Thi]WQ-NH2 (staple 1-4, 4-11) [I-1431] gave an EC50 of 34 nM.
In the case of Ac-[αAllylPro]D[tBuAla][B5(22)]DDAAFL[PyrS2][3Thi]WS-NH2 (staple 1-4, 4-11) [I-1432], the EC50 is reported as 27 nM.
With Ac-[αAllylPro]DS[B5(12)]DDAAFL[PyrS2″][3Thi][Bta]L-NH2 (staple 1-4, 4-11) [I-1414] the EC50 was 84 nM.
Ac-[αAllylPro]D[tBuAla][B5(5)]DDAAFL[PyrS2″][Phe(2-Cl)][Bta]L-NH2 (staple 1-4, 4-11; also: staple isomer, earlier eluting HPLC peak) [I-1416] showed an EC50 of 57 nM.

Each binder was assayed against full-length beta-Catenin (Uniprot ID P35222) (Homo sapiens (Human)) (UniProt P35222) (assay: fluorescence polarization competition, peptide titrated against full-length beta-catenin + 5FAM-TCF4(10-53)).
With Ac-[αAllylPro]D[tBuAla][B5]DDAAFN[PyrS2″][3Thi][Bta]N-NH2 (staple 1-4, 4-11) [I-816] the EC50 was 5 nM.
Ac-[αAllylPro]D[tBuAla][B5]DDAAFN[PyrS2″][3Thi][Bta][dH]-NH2 (staple 1-4, 4-11) [I-813] was tested, and the EC50 was 7 nM.
Ac-[αAllylPro]D[tBuAla][B5(3)]DDAA[Ala(4-thiazolyl)]N[PyrS2″][3Thi][Bta]Q-NH2 (staple 1-4, 4-11) [I-812] gave an EC50 of 33 nM.
For Ac-[αAllylPro]D[tBuAla][B5]DDAAFN[PyrS2″][3Thi][Bta]S-NH2 (staple 1-4, 4-11) [I-815], the EC50 was 5 nM.
Ac-[αAllylPro]D[tBuAla][B5]DDAAFN[PyrS2″][3Thi][Bta]T-NH2 (staple 1-4, 4-11) [I-814] gave an EC50 of 7 nM.
Ac-[αAllylPro]D[tBuAla][B5(3)]DDAAFT[PyrS2″][3Thi][Bta]H-NH2 (staple 1-4, 4-11) [I-810] was tested, and the EC50 was 6 nM.
Work on Ac-[αAllylPro]D[tBuAla][B5(3)]DDAAFF[PyrS2″][3Thi][Bta]H-NH2 (staple 1-4, 4-11) [I-808] yielded an EC50 of 5 nM.
Work on Ac-[αAllylPro]D[tBuAla][B5(3)]DDAAFT[PyrS2″][3Thi][Bta]Q-NH2 (staple 1-4, 4-11) [I-809] yielded an EC50 of 5 nM.

The binders below were run against full-length beta-Catenin (Uniprot ID P35222) (Homo sapiens (Human)) (UniProt P35222) (assay: fluorescence polarization competition; 10 nM full-length beta-catenin with 10 nM 5FAM-TCF4(10-53) probe as competitor).
In the case of Ac-[αAllylPro]D[tBuAla][B5]DDAAFN[PyrS2″][3Thi][Bta]N-NH2 (staple 1-4, 4-11) [I-816], the IC50 is reported as 5 nM.
With Ac-[αAllylPro]D[tBuAla][B5]DDAAFN[PyrS2″][3Thi][Bta][dH]-NH2 (staple 1-4, 4-11) [I-813] the IC50 was 7 nM.
Ac-[αAllylPro]D[tBuAla][B5(3)]DDAA[Ala(4-thiazolyl)]N[PyrS2″][3Thi][Bta]Q-NH2 (staple 1-4, 4-11) [I-812] gave an IC50 of 33 nM.
Binder Ac-[αAllylPro]D[tBuAla][B5]DDAAFN[PyrS2″][3Thi][Bta]S-NH2 (staple 1-4, 4-11) [I-815] has an IC50 of 5 nM.
With Ac-[αAllylPro]D[tBuAla][B5]DDAAFN[PyrS2″][3Thi][Bta]T-NH2 (staple 1-4, 4-11) [I-814] the IC50 was 7 nM.
Work on Ac-[αAllylPro]D[tBuAla][B5(3)]DDAAFT[PyrS2″][3Thi][Bta]H-NH2 (staple 1-4, 4-11) [I-810] yielded an IC50 of 6 nM.
Binder Ac-[αAllylPro]D[tBuAla][B5(3)]DDAAFF[PyrS2″][3Thi][Bta]H-NH2 (staple 1-4, 4-11) [I-808] has an IC50 of 5 nM.
Binder Ac-[αAllylPro]D[tBuAla][B5(3)]DDAAFT[PyrS2″][3Thi][Bta]Q-NH2 (staple 1-4, 4-11) [I-809] has an IC50 of 5 nM.
